Laboratory results as given in article doi:10.1101/2023.06.26.546551, “Unmasking Crucial Residues in Adipose Triglyceride Lipase (ATGL) for Co-Activation with Comparative Gene Identification-58 (CGI-58)” (bioRxiv, 2023).

Tests used:
Experiment in all cases: cell-based or functional assay
[1] = biological target: T1, smt3-mATGL288-StrepII (mouse adipose triglyceride lipase truncated after D288), wild type (mouse, UniProt Q8BJ56 1-288)
T1 sequence (looked up): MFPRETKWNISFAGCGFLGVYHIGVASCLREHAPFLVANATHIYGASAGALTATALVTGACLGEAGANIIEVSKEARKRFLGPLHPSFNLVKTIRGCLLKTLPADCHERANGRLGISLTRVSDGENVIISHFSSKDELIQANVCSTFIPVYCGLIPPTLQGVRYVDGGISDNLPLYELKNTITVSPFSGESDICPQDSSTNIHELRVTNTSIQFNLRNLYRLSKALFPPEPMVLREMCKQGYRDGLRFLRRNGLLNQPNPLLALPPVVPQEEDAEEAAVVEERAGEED

[2] = biological target: T2, smt3-mATGL288-StrepII N209A (mouse, UniProt Q8BJ56 1-288, N209A)
T2 sequence (looked up): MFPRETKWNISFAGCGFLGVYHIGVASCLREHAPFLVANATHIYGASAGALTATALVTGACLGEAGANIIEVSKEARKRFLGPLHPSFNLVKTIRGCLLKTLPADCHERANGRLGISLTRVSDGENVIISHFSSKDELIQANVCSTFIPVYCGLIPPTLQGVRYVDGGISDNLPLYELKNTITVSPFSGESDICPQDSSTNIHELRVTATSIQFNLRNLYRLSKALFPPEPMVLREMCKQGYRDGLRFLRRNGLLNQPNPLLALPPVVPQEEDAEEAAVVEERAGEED

[3] = biological target: T3, smt3-mATGL288-StrepII I212A (mouse, UniProt Q8BJ56 1-288, I212A)
T3 sequence (looked up): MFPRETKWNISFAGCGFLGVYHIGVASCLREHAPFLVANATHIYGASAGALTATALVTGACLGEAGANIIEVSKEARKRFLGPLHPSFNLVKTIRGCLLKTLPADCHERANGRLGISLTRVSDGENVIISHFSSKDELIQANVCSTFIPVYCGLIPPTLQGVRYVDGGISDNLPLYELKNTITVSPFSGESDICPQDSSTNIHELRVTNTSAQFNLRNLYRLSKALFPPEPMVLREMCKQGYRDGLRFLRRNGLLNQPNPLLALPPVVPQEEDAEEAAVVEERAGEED

[4] = biological target: T4, smt3-mATGL288-StrepII I212S (mouse, UniProt Q8BJ56 1-288, I212S)
T4 sequence (looked up): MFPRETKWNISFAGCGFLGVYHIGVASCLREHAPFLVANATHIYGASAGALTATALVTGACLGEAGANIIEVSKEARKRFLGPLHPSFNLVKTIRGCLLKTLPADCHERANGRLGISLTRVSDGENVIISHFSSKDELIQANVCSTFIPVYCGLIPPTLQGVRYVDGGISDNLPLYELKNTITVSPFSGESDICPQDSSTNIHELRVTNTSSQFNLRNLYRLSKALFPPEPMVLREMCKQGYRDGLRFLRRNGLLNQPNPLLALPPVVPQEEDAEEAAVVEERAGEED

[5] = biological target: T5, smt3-mATGL288-StrepII N215A (mouse, UniProt Q8BJ56 1-288, N215A)
T5 sequence (looked up): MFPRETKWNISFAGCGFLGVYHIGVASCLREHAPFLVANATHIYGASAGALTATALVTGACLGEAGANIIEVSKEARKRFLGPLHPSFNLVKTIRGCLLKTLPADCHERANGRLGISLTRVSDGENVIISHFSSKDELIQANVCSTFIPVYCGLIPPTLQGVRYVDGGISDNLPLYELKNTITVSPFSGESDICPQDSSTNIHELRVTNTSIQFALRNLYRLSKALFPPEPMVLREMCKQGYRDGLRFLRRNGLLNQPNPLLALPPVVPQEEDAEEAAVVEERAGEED

B1: smt3-mCGI-58-His6 (mouse comparative gene identification-58) (natural protein, UniProt Q9DBL9 1-351, looked up)
chain: MKAMAAEEEVDSADAGGGSGWLTGWLPTWCPTSTSHLKEAEEKMLKCVPCTYKKEPVRISNGNRIWTLMFSHNISSKTPLVLLHGFGGGLGLWALNFEDLSTDRPVYAFDLLGFGRSSRPRFDSDAEEVENQFVESIEEWRCALRLDKMILLGHNLGGFLAAAYSLKYPSRVSHLILVEPWGFPERPDLADQERPIPVWIRALGAALTPFNPLAGLRIAGPFGLSLVQRLRPDFKRKYSSMFEDDTVTEYIYHCNVQTPSGETAFKNMTIPYGWAKRPMLQRIGGLHPDIPVSVIFGARSCIDGNSGTSIQSLRPKSYVKTIAILGAGHYVYADQPEEFNQKVKEICHTVD
EC50 of mCGI-58 for co-activation of the TG hydrolase activity of mATGL288 (25 ug bacterial lysate, purified mCGI-58 up to 2300 nM) [1]: 178 nM
EC50 of mCGI-58 for co-activation of the TG hydrolase activity of mATGL288 N209A (25 ug bacterial lysate, purified mCGI-58 up to 2300 nM) [2]: ~500 nM
EC50 of mCGI-58 for co-activation of the TG hydrolase activity of mATGL288 I212A (25 ug bacterial lysate, purified mCGI-58 up to 2300 nM) [3]: ~500 nM
EC50 of mCGI-58 for co-activation of the TG hydrolase activity of mATGL288 I212S (25 ug bacterial lysate, purified mCGI-58 up to 2300 nM) [4]: ~200 nM
EC50 of mCGI-58 for co-activation of the TG hydrolase activity of mATGL288 N215A (25 ug bacterial lysate, purified mCGI-58 up to 2300 nM) [5]: ~200 nM
